Data on five sequences can be found in the supplement of paper PMC5998384.

The subject of data set [1] is HeLa Kyoto. Briefly: thermal stability score vs G1/S (z-score of summed log2 fold changes over temperatures); higher = more thermally stable than in G1/S.
The subject of data set [2] is HeLa Kyoto. Briefly: solubility in G1/S (NP-40 vs SDS abundance) (log2 ratio); higher = more soluble. The following applies: cell cycle stage: G1/S.
Data set [3] deals with HeLa Kyoto. The data set is described as follows: melting temperature (median over replicates), in situ; higher = more thermally stable.
In data set [4] the test system is HeLa Kyoto. Briefly: solubility change mitosis vs G1/S (difference of NP-40 vs SDS log2 ratios) (log2 ratio difference); higher = more soluble in mitosis.
Where [5] appears, read: cell cycle stage: early G1 (4.5 h after nocodazole release).
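Throughout, for melting temperature (median over replicates), in situ: HeLa Kyoto cells synchronized by double thymidine or nocodazole block, proteins quantified by TMT10plex mass spectrometry, three independent biological replicates.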
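Throughout, for solubility change mitosis vs G1/S (difference of NP-40 vs SDS log2 ratios): synchronized HeLa Kyoto cells (double thymidine block for G1/S, nocodazole release for mitosis), protein amounts in NP-40 versus SDS lysates quantified by mass spectrometry, three biological replicates.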
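Throughout, for solubility in G1/S (NP-40 vs SDS abundance): HeLa Kyoto cells arrested at G1/S by double thymidine block, proteins quantified by TMT10plex mass spectrometry in mild NP-40 versus SDS extracts, three biological replicates.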
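Throughout, for thermal stability score vs G1/S (z-score of summed log2 fold changes over temperatures): synchronized HeLa Kyoto cells, proteins quantified by TMT10plex mass spectrometry, three biological replicates, mitosis taken 0.5 h after nocodazole release, G1/S directly after double thymidine block.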

With “MGCTLSAEDKAAVERSKMIDRNLREDGEKAAKEVKLLLLGAGESGKSTIVKQMKIIHEDGYSEDECKQYKVVVYSNTIQSIIAIIRAMGRLKIDFGEAARADDARQLFVLAGSAEEGVMTPELAGVIKRLWRDGGVQACFSRSREYQLNDSASYYLNDLDRISQSNYIPTQQDVLRTRVKTTGIVETHFTFKDLYFKMFDVGGQRSERKKWIHCFEGVTAIIFCVALSDYDLVLAEDEEMNRMHESMKLFDSICNNKWFTETSIILFLNKKDLFEEKIKRSPLTICYPEYTGSNTYEEAAAYIQCQFEDLNRRKDTKEIYTHFTCATDTKNVQFVFDAVTDVIIKNNLKECGLY [GNAI3]”, the values for the thermal stability score with HeLa Kyoto [1] (setting [5]) and with HeLa Kyoto [1] (cell cycle stage: mitosis) were 0.761 and 0.823, respectively. The “solubility in G1/S (log2)” value with HeLa Kyoto [2] was -0.638. Moreover, the figures for the melting temperature with HeLa Kyoto [3] (cell cycle stage: G1/S) and in the data set with HeLa Kyoto [3] (cell cycle stage: mitosis) were 53.5 °C and 54.2 °C, respectively. In addition, in the data set with HeLa Kyoto [4], the “solubility change mitosis (log2)” value is -0.175.

For “MGDERPHYYGKHGTPQKYDPTFKGPIYNRGCTDIICCVFLLLAIVGYVAVGIIAWTHGDPRKVIYPTDSRGEFCGQKGTKNENKPYLFYFNIVKCASPLVLLEFQCPTPQICVEKCPDRYLTYLNARSSRDFEYYKQFCVPGFKNNKGVAEVLQDGDCPAVLIPSKPLARRCFPAIHAYKGVLMVGNETTYEDGHGSRKNITDLVEGAKKANGVLEARQLAMRIFEDYTVSWYWIIIGLVIAMAMSLLFIILLRFLAGIMVWVMIIMVILVLGYGIFHCYMEYSRLRGEAGSDVSLVDLGFQTDFRVYLHLRQTWLAFMIILSILEVIIILLLIFLRKRILIAIALIKEASRAVGYVMCSLLYPLVTFFLLCLCIAYWASTAVFLSTSNEAVYKIFDDSPCPFTAKTCNPETFPSSNESRQCPNARCQFAFYGGESGYHRALLGLQIFNAFMFFWLANFVLALGQVTLAGAFASYYWALRKPDDLPAFPLFSAFGRALRYHTGSLAFGALILAIVQIIRVILEYLDQRLKAAENKFAKCLMTCLKCCFWCLEKFIKFLNRNAYIMIAIYGTNFCTSARNAFFLLMRNIIRVAVLDKVTDFLFLLGKLLIVGSVGILAFFFFTHRIRIVQDTAPPLNYYWVPILTVIVGSYLIAHGFFSVYGMCVDTLFLCFLEDLERNDGSAERPYFMSSTLKKLLNKTNKKAAES [SLC44A2]”, the thermal stability score in the data set with HeLa Kyoto [1] (setting [5]) is -1.29; in the data set with HeLa Kyoto [1] (cell cycle stage: mitosis) it was -2.25. The “solubility in G1/S (log2)” value with HeLa Kyoto [2] was 0.0147. In addition, the melting temperature turned out to be 60.2 °C in the data set with HeLa Kyoto [3] (cell cycle stage: G1/S) and 60.1 °C in the data set with HeLa Kyoto [3] (cell cycle stage: mitosis). Besides, in the data set on HeLa Kyoto [4], the “solubility change mitosis (log2)” value is 0.0871.

Turning to “MGDKIWLPFPVLLLAALPPVLLPGAAGFTPSLDSDFTFTLPAGQKECFYQPMPLKASLEIEYQVLDGAGLDIDFHLASPEGKTLVFEQRKSDGVHTVETEVGDYMFCFDNTFSTISEKVIFFELILDNMGEQAQEQEDWKKYITGTDILDMKLEDILESINSIKSRLSKSGHIQTLLRAFEARDRNIQESNFDRVNFWSMVNLVVMVVVSAIQVYMLKSLFEDKRKSRT [TMED5]”, the thermal stability score with HeLa Kyoto [1] (setting [5]) is 2.08; in the data set on HeLa Kyoto [1] (cell cycle stage: mitosis) it was 1.93. Besides, the “solubility in G1/S (log2)” value in the data set with HeLa Kyoto [2] turned out to be 0.107. The melting temperature in the data set on HeLa Kyoto [3] (cell cycle stage: G1/S) stood at 54.2 °C; in the data set with HeLa Kyoto [3] (cell cycle stage: mitosis) it was 55.5 °C. For the same sequence, the “solubility change mitosis (log2)” value in the data set on HeLa Kyoto [4] is -0.206.

With “MGDPAPARSLDDIDLSALRDPAGIFELVEVVGNGTYGQVYKGRHVKTGQLAAIKVMDVTEDEEEEIKQEINMLKKYSHHRNIATYYGAFIKKSPPGNDDQLWLVMEFCGAGSVTDLVKNTKGNALKEDCIAYICREILRGLAHLHAHKVIHRDIKGQNVLLTENAEVKLVDFGVSAQLDRTVGRRNTFIGTPYWMAPEVIACDENPDATYDYRSDIWSLGITAIEMAEGAPPLCDMHPMRALFLIPRNPPPRLKSKKWSKKFIDFIDTCLIKTYLSRPPTEQLLKFPFIRDQPTERQVRIQLKDHIDRSRKKRGEKEETEYEYSGSEEEDDSHGEEGEPSSIMNVPGESTLRREFLRLQQENKSNSEALKQQQQLQQQQQRDPEAHIKHLLHQRQRRIEEQKEERRRVEEQQRREREQRKLQEKEQQRRLEDMQALRREEERRQAEREQEYKRKQLEEQRQSERLQRQLQQEHAYLKSLQQQQQQQQLQKQQQQQLLPGDRKPLYHYGRGMNPADKPAWAREVEERTRMNKQQNSPLAKSKPGSTGPEPPIPQASPGPPGPLSQTPPMQRPVEPQEGPHKSLVAHRVPLKPYAAPVPRSQSLQDQPTRNLAAFPASHDPDPAIPAPTATPSARGAVIRQNSDPTSEGPGPSPNPPAWVRPDNEAPPKVPQRTSSIATALNTSGAGGSRPAQAVRARPRSNSAWQIYLQRRAERGTPKPPGPPAQPPGPPNASSNPDLRRSDPGWERSDSVLPASHGHLPQAGSLERNRVGVSSKPDSSPVLSPGNKAKPDDHRSRPGRPADFVLLKERTLDEAPRPPKKAMDYSSSSEEVESSEDDEEEGEGGPAEGSRDTPGGRSDGDTDSVSTMVVHDVEEITGTQPPYGGGTMVVQRTPEEERNLLHADSNGYTNLPDVVQPSHSPTENSKGQSPPSKDGSGDYQSRGLVKAPGKSSFTMFVDLGIYQPGGSGDSIPITALVGGEGTRLDQLQYDVRKGSVVNVNPTNTRAHSETPEIRKYKKRFNSEILCAALWGVNLLVGTENGLMLLDRSGQGKVYGLIGRRRFQQMDVLEGLNLLITISGKRNKLRVYYLSWLRNKILHNDPEVEKKQGWTTVGDMEGCGHYRVVKYERIKFLVIALKSSVEVYAWAPKPYHKFMAFKSFADLPHRPLLVDLTVEEGQRLKVIYGSSAGFHAVDVDSGNSYDIYIPVHIQSQITPHAIIFLPNTDGMEMLLCYEDEGVYVNTYGRIIKDVVLQWGEMPTSVAYICSNQIMGWGEKAIEIRSVETGHLDGVFMHKRAQRLKFLCERNDKVFFASVRSGGSSQVYFMTLNRNCIMNW [MINK1]”, the thermal stability score with HeLa Kyoto [1] (setting [5]) came to 0.759; in the data set with HeLa Kyoto [1] (cell cycle stage: mitosis), 2.05. The “solubility in G1/S (log2)” value in the data set with HeLa Kyoto [2] is -0.0708. Also, the melting temperature stood at 49.8 °C in the data set on HeLa Kyoto [3] (cell cycle stage: G1/S) and 50.7 °C in the data set with HeLa Kyoto [3] (cell cycle stage: mitosis). Besides, the “solubility change mitosis (log2)” value in the data set on HeLa Kyoto [4] is 0.157.

As to “MGDSHVDTSSTVSEAVAEEVSLFSMTDMILFSLIVGLLTYWFLFRKKKEEVPEFTKIQTLTSSVRESSFVEKMKKTGRNIIVFYGSQTGTAEEFANRLSKDAHRYGMRGMSADPEEYDLADLSSLPEIDNALVVFCMATYGEGDPTDNAQDFYDWLQETDVDLSGVKFAVFGLGNKTYEHFNAMGKYVDKRLEQLGAQRIFELGLGDDDGNLEEDFITWREQFWPAVCEHFGVEATGEESSIRQYELVVHTDIDAAKVYMGEMGRLKSYENQKPPFDAKNPFLAAVTTNRKLNQGTERHLMHLELDISDSKIRYESGDHVAVYPANDSALVNQLGKILGADLDVVMSLNNLDEESNKKHPFPCPTSYRTALTYYLDITNPPRTNVLYELAQYASEPSEQELLRKMASSSGEGKELYLSWVVEARRHILAILQDCPSLRPPIDHLCELLPRLQARYYSIASSSKVHPNSVHICAVVVEYETKAGRINKGVATNWLRAKEPAGENGGRALVPMFVRKSQFRLPFKATTPVIMVGPGTGVAPFIGFIQERAWLRQQGKEVGETLLYYGCRRSDEDYLYREELAQFHRDGALTQLNVAFSREQSHKVYVQHLLKQDREHLWKLIEGGAHIYVCGDARNMARDVQNTFYDIVAELGAMEHAQAVDYIKKLMTKGRYSLDVWS [POR]”, the thermal stability score in the data set with HeLa Kyoto [1] (setting [5]) worked out at 4.17; in the data set on HeLa Kyoto [1] (cell cycle stage: mitosis) it was 5.83. Further, the “solubility in G1/S (log2)” value in the data set on HeLa Kyoto [2] was determined as 0.0892. In addition, the melting temperature in the data set with HeLa Kyoto [3] (cell cycle stage: G1/S) was 51.6 °C; in the data set with HeLa Kyoto [3] (cell cycle stage: mitosis) it was 51.1 °C. The “solubility change mitosis (log2)” value in the data set on HeLa Kyoto [4] is -0.125.
